From PMC8795524

What was measured:
Test in all cases: EMSA
SAMD9 134-385 K198E = target: T1, SAMD9 134-385 K198E (Homo sapiens, UniProt Q5K651 134-385, K198E)
T1 sequence: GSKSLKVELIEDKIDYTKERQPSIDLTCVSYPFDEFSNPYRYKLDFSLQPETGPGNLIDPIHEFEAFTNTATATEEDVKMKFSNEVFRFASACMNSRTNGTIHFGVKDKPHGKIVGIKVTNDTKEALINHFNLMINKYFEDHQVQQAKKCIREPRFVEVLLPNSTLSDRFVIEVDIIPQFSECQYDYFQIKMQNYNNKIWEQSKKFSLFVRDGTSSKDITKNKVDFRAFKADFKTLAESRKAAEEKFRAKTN

SAMD9 134-385 K257E = target: T2, SAMD9 134-385 K257E (Homo sapiens, UniProt Q5K651 134-385, K257E)
T2 sequence: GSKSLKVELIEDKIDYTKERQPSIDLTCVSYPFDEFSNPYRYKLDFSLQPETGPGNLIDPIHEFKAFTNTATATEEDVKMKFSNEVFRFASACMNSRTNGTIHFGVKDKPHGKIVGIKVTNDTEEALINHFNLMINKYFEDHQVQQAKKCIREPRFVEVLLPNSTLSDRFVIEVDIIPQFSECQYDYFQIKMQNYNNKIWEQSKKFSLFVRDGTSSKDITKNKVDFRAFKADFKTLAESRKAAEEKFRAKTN

SAMD9 134-385 R221E = target: T3, SAMD9 134-385 R221E (Homo sapiens, UniProt Q5K651 134-385, R221E)
T3 sequence: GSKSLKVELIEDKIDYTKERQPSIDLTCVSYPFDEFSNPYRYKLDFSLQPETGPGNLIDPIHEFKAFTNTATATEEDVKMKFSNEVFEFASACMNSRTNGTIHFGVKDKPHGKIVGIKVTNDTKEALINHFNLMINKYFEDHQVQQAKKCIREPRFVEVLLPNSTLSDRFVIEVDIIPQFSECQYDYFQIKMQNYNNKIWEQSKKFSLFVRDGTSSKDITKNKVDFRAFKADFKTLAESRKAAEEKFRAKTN

SAMD9 134-385 = target: T4, SAMD9 134-385 (Homo sapiens, UniProt Q5K651 134-385)
T4 sequence: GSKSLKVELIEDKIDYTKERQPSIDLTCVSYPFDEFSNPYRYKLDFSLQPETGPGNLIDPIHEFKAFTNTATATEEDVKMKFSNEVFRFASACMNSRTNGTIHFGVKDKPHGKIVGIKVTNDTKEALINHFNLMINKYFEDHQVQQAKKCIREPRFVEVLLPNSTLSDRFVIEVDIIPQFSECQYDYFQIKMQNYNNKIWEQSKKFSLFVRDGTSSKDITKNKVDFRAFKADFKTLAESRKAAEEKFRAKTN

B1: 5' 6-FAM 22-nt dsDNA (dsDNA)
DNA 1: GCAAATTAATGATTTATTCAAG
DNA 2: CTTGAATAAATCATTAATTTGC
B1: no binding (SAMD9 134-385 K198E); binds (SAMD9 134-385 K257E); no binding (SAMD9 134-385 R221E).

B2: 11-nt dsDNA (dsDNA)
DNA 1: GAGAAAGAGAG
DNA 2: CTCTCTTTCTC
B2: no binding (SAMD9 134-385).
